± gives the uncertainty stated by the source.

This series can be described thus: amyloid nucleation score (Sup35N fusion, yeast selection) (log enrichment); library NNK3; higher = more nucleation; inactive = no reads after selection. In a few lines:
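The nucleation score equals the log enrichment of output over input reads from DiMSum, centred on the mode score of non-aggregating sequences. It was computed only for sequences with 100 or more input reads. The reads came from Illumina sequencing of plasmid inserts from psi-negative yeast expressing Sup35N fused to peptides of 20 random codons, induced with 100 μM copper sulfate for 24 hours and grown 7 days at 30°C without adenine and uracil.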
In the case of LVCFPGTSFAGVCDW, the amyloid nucleation score result is “inactive”.

Regarding LVDCFKLCRELNGLILNVAA, the amyloid nucleation score stood at 1.07 ± 0.12.

On to LVEISTVERRALIFYRCIDL, for which the amyloid nucleation score was -0.481 ± 1.4.

Take LVFLN: the amyloid nucleation score entry was “inactive”.

As to LVFSRCWFSMTVEYISYSVD, the amyloid nucleation score result is “inactive”.

On to LVLDCMIMGMIIDSWYWPLN, for which the amyloid nucleation score entry is “inactive”.

With LVLQLGFKKSPLRVYRSSGN, the amyloid nucleation score result was “inactive”.

In the case of LVLSWWYMMFFRFDGV, the amyloid nucleation score result was “inactive”.

As for LVRCRVVWDLL, the amyloid nucleation score entry was “inactive”.

Regarding LVSMWMQASILLYCNGSNHW, the amyloid nucleation score was determined as 1.61 ± 0.11.

Regarding LVVATRRLMYGHRKVYAWVD, the amyloid nucleation score entry was “inactive”.

For LVVLLFVFI, the amyloid nucleation score result was “inactive”.

On to LVVSVCKK, for which the amyloid nucleation score entry is “inactive”.

In the case of LVVWRIRWRDKGSL, the amyloid nucleation score entry is “inactive”.

In the case of LVYKLDVNCYDRNLLDSVEK, the amyloid nucleation score entry is “inactive”.

LVYTA: the amyloid nucleation score result was “inactive”.

Consider LVYTVNLWNALIFHLD, for which the amyloid nucleation score was determined as 0.527 ± 0.22.

With LWAWIIYGMWKGSFLCHVFS, the amyloid nucleation score result is “inactive”.

LWEDFLMVKSVVMN: the amyloid nucleation score entry is “inactive”.

On to LWGYGL, for which the amyloid nucleation score entry was “inactive”.

The substance LWHSYFSFYLCVTFENRVIN displayed an amyloid nucleation score of 2.79 ± 0.052.

With LWLCSYNATGSFVAKD, the amyloid nucleation score is -0.246 ± 0.5.

With LWLGWNRKWQFSWPAAGRFL, the amyloid nucleation score entry was “inactive”.

For the substance LWNFYSDCNGVPQDESLVEG, the amyloid nucleation score entry is “inactive”.

Consider LWTELYVYPLNMTVMVAIF, for which the amyloid nucleation score entry was “inactive”.

For LYCTWNSYNSVYAI, the amyloid nucleation score turned out to be 0.66 ± 0.2.

As to LYDISGPM, the amyloid nucleation score entry is “inactive”.

LYDSSTALATVSDHFVEWLS: the amyloid nucleation score entry is “inactive”.

The substance LYDVGYKGQMVDGGTVCCER came in with an amyloid nucleation score of -0.257 ± 0.8.

LYESNVRCNRVVTSLFVSSQ: the amyloid nucleation score result was “inactive”.

In the case of LYGLRHYILSEHFGGFVLVG, the amyloid nucleation score result was “inactive”.

Turning to LYHFANIFSFC, the amyloid nucleation score result is “inactive”.

On to LYILGQIFR, for which the amyloid nucleation score result is “inactive”.

As to LYIPMQLQCCAIMEGYAILF, the amyloid nucleation score amounted to 1.6 ± 0.078.

For LYLKYLELEILRPYGAFICH, the amyloid nucleation score entry was “inactive”.

On to LYNGELNLMVRSNAEFMGSG, for which the amyloid nucleation score entry was “inactive”.

As to LYPFYFYA, the amyloid nucleation score result is “inactive”.

LYREFVWMEVCVCRWG: the amyloid nucleation score result is “inactive”.

For the substance LYRKWRE, the amyloid nucleation score entry was “inactive”.

As to LYSGVIAHCIVIPIELFSVS, the amyloid nucleation score result is “inactive”.

Turning to LYSLVV, the amyloid nucleation score entry was “inactive”.

Consider LYTNGIFYWQMGYLKVWQGI, for which the amyloid nucleation score result was “inactive”.

For LYVGEKLVHFLEARMD, the amyloid nucleation score entry was “inactive”.

Take LYVVVASMVGLDASRP: the amyloid nucleation score turned out to be 0.266 ± 0.38.

Turning to LYWFCCLVIYVGPLVHPVEL, the amyloid nucleation score entry was “inactive”.

Consider LYWKEIPGMDYKMAV, for which the amyloid nucleation score entry was “inactive”.

As for MACRSNGLVGPEHTYVPT, the amyloid nucleation score result was “inactive”.

On to MAVID, for which the amyloid nucleation score entry was “inactive”.

Consider MCDCL, for which the amyloid nucleation score entry was “inactive”.

In the case of MCEGAIQQRILLSMKFCCKW, the amyloid nucleation score came out at 0.037 ± 0.87.

For MCFTLIKLLIQWKREDQIDE, the amyloid nucleation score turned out to be 1.07 ± 0.096.

Consider MCRTMLSPLMR, for which the amyloid nucleation score entry is “inactive”.

In turn, MCSIIRCRFNMFCLMYVNSV returned an amyloid nucleation score of 0.584 ± 0.13.

In the case of MCVFNNGVGLPDVGVNLAYN, the amyloid nucleation score result is “inactive”.

For the substance MCYLSSSDAGDVIPAWC, the amyloid nucleation score entry is “inactive”.

Take MDFCRRQIMLVVAFSCRLWL: the amyloid nucleation score entry is “inactive”.

With MEINGALRYMH, the amyloid nucleation score entry was “inactive”.

For the substance MEYRHCSFNRSRTRTLYRMN, the amyloid nucleation score result is “inactive”.

With MEYSRVVAL, the amyloid nucleation score was -0.421 ± 0.66.

In the case of MFEYLWEENMSLIYSKVDCG, the amyloid nucleation score entry is “inactive”.

On to MFFAGKTPGHVHVWNSANTR, for which the amyloid nucleation score result is “inactive”.

Take MFFWMCE: the amyloid nucleation score entry is “inactive”.

Consider MFGRYSLLDILPLNMIRGNI, for which the amyloid nucleation score result was “inactive”.

With MFINECVSVYDQF, the amyloid nucleation score result was “inactive”.

MFMRIRSLIE: the amyloid nucleation score entry was “inactive”.

MFMVAIGAYEGCSGRRHREV came in with an amyloid nucleation score of -0.238 ± 0.64.

For the substance MFVDSSISGIEIR, the amyloid nucleation score entry was “inactive”.

For MFVSDKEYRCVTSSVTRVCT, the amyloid nucleation score result was “inactive”.

MFVSLMKQFM showed an amyloid nucleation score of 0.931 ± 0.1.

As for MGISLMFESERVSVYEHGNL, the amyloid nucleation score result was “inactive”.

With MGKTMILKLLY, the amyloid nucleation score result was “inactive”.

Turning to MGMARWYAKWLGWVLSMYRW, the amyloid nucleation score result was “inactive”.

Regarding MGRLKCTVKPVSYEMWKVYA, the amyloid nucleation score entry was “inactive”.

MHFLVQSCFTEPRWAACRNV: the amyloid nucleation score result was “inactive”.

MHIFVLNLDLSRA displayed an amyloid nucleation score of 2.61 ± 0.069.

Consider MHPCSL, for which the amyloid nucleation score result was “inactive”.

Turning to MHSGFNRFSTYCRKVGGSYR, the amyloid nucleation score result was “inactive”.

Regarding MICLLSSSCKRRCLMG, the amyloid nucleation score entry was “inactive”.

For MIDDYRECSYIYF, the amyloid nucleation score result is “inactive”.

MIFSTYNNLLWLKSLQSTGG: the amyloid nucleation score entry was “inactive”.

For the substance MILLHVVCSVFPVRGFVVLA, the amyloid nucleation score result is “inactive”.

Consider MILSESKYGFTFRLRVARQV, for which the amyloid nucleation score result is “inactive”.

As to MILSNISGSRLIGSSNHSAF, the amyloid nucleation score entry was “inactive”.

With MIQIIMLEGGLSCLRHLVIT, the amyloid nucleation score is -0.362 ± 0.8.

MIRLSDTRRWIVYFHQCLCG: the amyloid nucleation score is -0.748 ± 1.

MIRWTWNRKHTII: the amyloid nucleation score entry is “inactive”.

On to MISLMTYSYSRYMYIVSPVP, for which the amyloid nucleation score entry was “inactive”.

Take MISYELVNALEIISNLIFMW: the amyloid nucleation score result was “inactive”.

Turning to MIVHWMVHSRLVHKAVVGDG, the amyloid nucleation score entry is “inactive”.

The substance MIVSSYFYLVRIQYEFHAGW showed an amyloid nucleation score of 0.172 ± 0.43.

On to MKCLEGMHFIIFLVLALCIY, for which the amyloid nucleation score entry is “inactive”.

With MKLSMHVCAGAKLSGEGFRF, the amyloid nucleation score result was “inactive”.

In the case of MKLSVLNVWNSRWGLQTA, the amyloid nucleation score result is “inactive”.

Turning to MKVIRTYRGYGCQDWIELLF, the amyloid nucleation score result is “inactive”.

In the case of MLFRLRSAYHTASDVDANDD, the amyloid nucleation score result was “inactive”.

On to MLISERIFQYTCGNYS, for which the amyloid nucleation score came out at 2.09 ± 0.085.

Take MLITSMLCIHV: the amyloid nucleation score entry was “inactive”.

As to MLLFACQRLQLVALLGARML, the amyloid nucleation score entry is “inactive”.

Substance MLMAPSYEYT came in with an amyloid nucleation score of -0.209 ± 0.78.

With MLRDFFQ, the amyloid nucleation score entry was “inactive”.

Regarding MLRLKYLIELTRDFFGWFLF, the amyloid nucleation score result is “inactive”.

With MMPNELFDPVRKDRSFVRWV, the amyloid nucleation score result was “inactive”.

Consider MMVRWEVTV, for which the amyloid nucleation score was -0.172 ± 1.

On to MNDNLNNHVSDEIFSFVG, for which the amyloid nucleation score came to 0.813 ± 0.2.

MNFVPTLRSIVVGRWRDLEV: the amyloid nucleation score result is “inactive”.

Consider MNLFFGFWLLLSAFVSHQVC, for which the amyloid nucleation score entry is “inactive”.

Take MNNVN: the amyloid nucleation score result was “inactive”.

For MNRDTYSMWSVKDKMTFI, the amyloid nucleation score is -0.124 ± 0.75.

Take MNRNLLFASTLTFNFVLFVW: the amyloid nucleation score result was “inactive”.

MNYRFVISMLWVEVRGFGRQ gave an amyloid nucleation score of -0.892 ± 2.4.

MPGAALLVVLFSGFVYREAM: the amyloid nucleation score entry was “inactive”.

Turning to MPNYNLSGLNWVRCG, the amyloid nucleation score result is “inactive”.

Consider MPYDFPVVHNIDFFG, for which the amyloid nucleation score result was “inactive”.

With MQLDYSSSVLNMFLDANILY, the amyloid nucleation score entry was “inactive”.

For MQTNCFRMAVYFAQVRLS, the amyloid nucleation score result is “inactive”.

MRHEHAYSIPAHCIYELIMM: the amyloid nucleation score result is “inactive”.

For MRLADLGMLGARTDQDRLPT, the amyloid nucleation score result is “inactive”.

With MRLRLYINVSG, the amyloid nucleation score result was “inactive”.

MRNLGGLCIALPEVVEGTDF: the amyloid nucleation score entry is “inactive”.

For the substance MRQIAQRCRSGNAACIGSLG, the amyloid nucleation score was determined as 0.664 ± 0.23.

Consider MRRKDKNIRVDYRVAGGYRD, for which the amyloid nucleation score entry is “inactive”.

Take MRSMVKLSCDERVCFVISGE: the amyloid nucleation score result was “inactive”.

Take MRSSIPIYVLMLIALSENSP: the amyloid nucleation score entry is “inactive”.

Consider MSCIFVSKKFLRLELGSSLY, for which the amyloid nucleation score result was “inactive”.

Consider MSFRRIFSSLIYSLRRSSAN, for which the amyloid nucleation score entry was “inactive”.

Consider MSGEFVV, for which the amyloid nucleation score entry is “inactive”.

In the case of MSGTLCPSHNILETDCRVQV, the amyloid nucleation score result is “inactive”.

In the case of MSIVAGENLIGKV, the amyloid nucleation score result was “inactive”.

As to MSLLGQ, the amyloid nucleation score result is “inactive”.

Take MSLLS: the amyloid nucleation score result is “inactive”.

Take MSLVFRMSPHIQLVGWVHGR: the amyloid nucleation score entry was “inactive”.

In turn, MSNGIVYNELFSVVRWS showed an amyloid nucleation score of 1.67 ± 0.071.

Source of the values: the supplement of paper PMC12042874.
